Series [1] deals with T1, NOX4 (Homo sapiens, UniProt Q9NPH5).
T1 construct: Human hepatocytes (5200, ScienCell) were maintained in hepatocyte medium; host or cells: primary human hepatocytes
Description: NOX4 inhibitor in rhIL11-stimulated human hepatocytes. The series is classed as cell-based. Conditions: rhIL11 10 ng ml^-1, 24 h.

Series [2] has as its system human hepatocytes. Briefly: APAP-mediated hepatocyte death, Annexin V/PI flow cytometry. Particulars: APAP 20 mM, 24 hours; X209 2 μg/ml. A general note: In flow cytometry, cells or beads pass a laser one at a time.
Description: Cells were serum-starved for 16 hours prior to their used in experiments, by culture in serum-free hepatocyte medium.
Hepatocytes were then stained using the FITC Annexin V/Dead Cell Apoptosis Kit (V13242, Thermo Fisher) according to the manufacturer's instructions, and Annexin V-FITC/PI-stained cells were analysed by flow cytometry using a BD LSRFortessa flow cytometer (BD Bioscience). 10,000 cells were analyzed per sample. Data was analyzed using FlowJo version 7 software.
For series [3], the system named is APAP-induced liver injury. Briefly: Mouse model of APAP-induced liver injury, anti-IL-11Rα antibody 16 h prior to APAP (Example 2).
Description: Liver samples were excised and fixed for 48 hours at room temperature in 10% neutral-buffered formalin (NBF), dehydrated, embedded in paraffin blocks and sectioned at 7 μm. Sections were stained with Hematoxylin&Eosin (H&E) according to standard protocol and examined by light microscopy.
Series [4] deals with lethal APAP overdose. Description: Lethal APAP overdose in mice, X209 10 h after. The format is in vivo, mouse. Conditions: for gross liver morphology / serum ALT levels versus normal (saline) control mice: day 8 after APAP 550 mg/kg, 20 mg/kg 10 h after. As for the experimental part:
Mice were euthanized at 24 hours and 192 hours (8 days). Serum ALT levels were analysed as described in Example 4. Livers were harvested, and fixed as described in Example 4, and digital photographs were taken.

Series [5] deals with APAP overdose acute liver injury. Description: Severe APAP overdose in mice, X209 10 h after. The format is in vivo, mouse. The protocol: Mice were euthanized at 24, 36 and 48 hours. Serum ALT levels were analysed as described in Example 4.
Livers were harvested, and fixed as described in Example 4, and digital photographs were taken.
Western blots were also performed on protein extracts prepared from the livers of the mice.

The test system of series [6] is AILI. Briefly: X209 preventive dosing 16 h prior to APAP in mice (6.8).
Description: (§1) Mice were administered anti-IL11Rα (X209) or IgG isotype control antibody at different times and doses, as described above or in the figure legends.
(§2) The levels of alanine transaminase (ALT) or aspartate aminotransferase (AST) in mouse serum and hepatocyte supernatant were measured using ALT Activity (ab105134, Abcam) or AST (ab105135, Abcam) Assay Kits. Liver glutathione sulfhydryl (GSH) measurements were performed using Glutathione Colorimetric Detection Kit (EIAGSHC, Thermo Fisher). All colorimetric assays were performed according to the manufacturer's protocol.
Livers were fixed for 48 h at room temperature (RT) in 10% neutral-buffered formalin (NBF), dehydrated, embedded in paraffin blocks and sectioned at 7 μm. Sections were stained with H&E according to standard protocol and examined by light microscopy.
The subject of series [7] is AILI. Description: X209, NAC or NAC+X209 3 h after APAP in mice.
Description: as §1, §2
Western blots were carried out from hepatocyte and liver tissue lysates. Hepatocytes and tissues were homogenized in radioimmunoprecipitation assay (RIPA) buffer containing protease and phosphatase inhibitors (Thermo Fisher), followed by centrifugation to clear the lysate. Protein concentrations were determined by Bradford assay (Bio-Rad). Equal amounts of protein lysates were separated by SDS-PAGE, transferred to PVDF membrane, and subjected to immunoblot analysis for the indicated primary antibodies. Proteins were visualized using the ECL detection system (Pierce) with the appropriate secondary antibodies.
Series [8] has as its system human hepatocytes. Description: APAP-mediated activation of Erk and Jnk, western blot. Conditions: APAP 10 mM, 24 hours; X209 2 μg/ml. The format is cell-based.
For series [9], the system named is primary human hepatocytes. Briefly: APAP-challenged primary human hepatocytes with X209. The format is cell-based. Conditions: APAP 20 mM, X209 2 μg ml^-1, 24 h. The text has this:
PI^+ve cells were quantified with the flow cytometer (Fortessa, BD Biosciences) and analyzed with FlowJo version 7 software (TreeStar).

In series [10] the test system is APAP overdose acute liver injury. Description: Severe APAP overdose in mice, anti-IL11Rα antibody (X209) 16 h before. The series is classed as in vivo, mouse. Particulars: 20 mg/kg IP 16 hours before APAP 400 mg/kg.
The mark [11] stands for this setting: 10 mg/kg IP 16 hours prior to APAP 400 mg/kg.
[12] abbreviates: listed as Antagonist antibody inhibitor of IL-11 mediated signalling.
The mark [13] stands for this setting: 20 mg/kg 10 h after APAP 400 mg/kg.
[14] abbreviates: 20 mg/kg IP 10 hours after APAP 400 mg/kg.

“Also recorded” adds a separate entry of the source.

T1 sequence (Q9NPH5 whole entry): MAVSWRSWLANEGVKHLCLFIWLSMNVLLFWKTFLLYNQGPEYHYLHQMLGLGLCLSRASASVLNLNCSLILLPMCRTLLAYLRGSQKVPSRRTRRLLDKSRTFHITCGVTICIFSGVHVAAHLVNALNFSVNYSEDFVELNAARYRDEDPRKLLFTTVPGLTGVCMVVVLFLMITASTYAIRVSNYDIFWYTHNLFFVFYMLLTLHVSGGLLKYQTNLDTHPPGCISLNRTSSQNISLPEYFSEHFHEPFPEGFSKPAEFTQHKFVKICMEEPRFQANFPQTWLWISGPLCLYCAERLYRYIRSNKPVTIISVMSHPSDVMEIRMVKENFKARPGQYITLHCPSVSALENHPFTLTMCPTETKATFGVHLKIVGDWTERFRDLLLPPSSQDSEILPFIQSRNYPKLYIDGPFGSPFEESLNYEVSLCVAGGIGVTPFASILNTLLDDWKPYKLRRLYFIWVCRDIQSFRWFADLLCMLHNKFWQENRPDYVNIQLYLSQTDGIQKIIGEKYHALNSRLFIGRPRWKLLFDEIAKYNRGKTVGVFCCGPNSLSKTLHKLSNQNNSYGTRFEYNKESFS
T1 sequence (P13498 2-195 partner limits assumed): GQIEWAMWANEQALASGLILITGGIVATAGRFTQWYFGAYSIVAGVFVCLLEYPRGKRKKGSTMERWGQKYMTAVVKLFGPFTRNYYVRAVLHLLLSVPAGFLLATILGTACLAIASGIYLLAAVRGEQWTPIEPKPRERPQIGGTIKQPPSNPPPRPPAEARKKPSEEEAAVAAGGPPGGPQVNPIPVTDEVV

As to `CN(C)c1cccc(-c2c3c(=O)n(-c4ccccc4Cl)[nH]c3cc(=O)n2C)c1` [GKT-13781], the “IL11-stimulated GSH depletion, CASP3 activation and cell death” value in [1] was “prevented IL11-stimulated GSH depletion, CASP3 activation and cell death in a dose-dependent manner”.

B1: X209: antagonist (neutralizing) anti-IL11Rα antibody (Widjaja et al., Gastroenterology 2019; Aldevron) (antibody, V domains shown)
VH: QVQLQQPGAELVRPGSSVKLSCKASGYTFTNYWMHWLKQRPVQGLEWIGNIGPSDSKTHYNQKFKDKATLTVDKSSSTAYMQLNSLTSEDSAVYYCARGDYVLFTYWGQGTLVTVSA
VL: DIVLTQSPATLSLSPGERATLSCRASQSISNNLHWYQQKSHEAPRLLIKYASQSISGIPARFSGSGSGTDFTLSFSSLETEDFAVYFCQQSYSWPLTFGQGTKLEIK
With B1, the “proportion of dead hepatocytes” value in series [2] is reported as “substantially reduce the proportion of dead hepatocytes”. In series [3] (setting [11]), the “APAP-induced loss in liver mass (liver index)” value is “prevent APAP-induced loss in liver mass” and the “centrilobular necrosis, H&E liver histology” value was “reduced”. For the same molecule, the “ALT levels lower compared to IgG control” value in [3] (10 mg/kg IP 16 hours prior to APAP 400 mg/kg, 24 hours post-APAP) worked out at 55%. In addition, the “mobility and activity of the mice” value in [3] (24 hours post-APAP treatment) was “normal mobility and activity”. Moreover, in series [4] (20 mg/kg 10 h after lethal APAP 550 mg/kg, 8 days), the “survival by the study end” value is 90%. The “survival relative to IgG-treated controls” value in series [4] (20 mg/kg IP 10 hours after APAP 550 mg/kg, monitored 8 days) is “significantly improved survival”. Also, in series [4], the gross liver morphology entry is reported as “normal liver morphology” and the “serum ALT levels versus normal (saline) control mice” value is on record as “comparable to controls”. Besides, in series [4] (setting [12]), the gross liver morphology result was “restore gross liver morphology” and the “serum ALT levels versus normal (saline) control mice” value is reported as “not significantly different”. Besides, in [5] (setting [13]), the “EdU staining, nuclei with recent DNA synthesis” value was “very large numbers of nuclei with evidence of recent DNA synthesis”; the “cleaved CASP3 in liver” value is “reduction in cleaved CASP3 at 24 h”; the “liver damage (gross anatomy, histology, serum IL11, ALT and AST levels)” value is on record as “largely reversed liver damage by the second day after APAP”; the “liver regeneration markers (PCNA, Cyclin D1/D3/E1, p-RB)” value is “strong upregulation of PCNA, Cyclin D1/D3/E1, and phosphorylation of RB”. In [5] (setting [14]), the gross liver morphology result is recorded as “restore gross liver morphology”; the “hepatic ERK and JNK activation (p-ERK, pJNK1, pJNK2), western blot” value was “substantially reduced the levels of p-ERK, pJNK1 and pJNK2; also recorded: effectively blocked ERK and JNK activation”. Besides, the “serum ALT levels” value in series [5] (20 mg/kg IP 10 hours after APAP 400 mg/kg, 24, 36 and 48 hours) was “substantial reduction in serum ALT levels”. In series [6] (10 mg kg^-1 16 h prior to APAP), the “centrilobular necrosis, histology” value is “limited histological evidence of centrilobular necrosis” and the “hepatic GSH levels” value is given as “largely restored hepatic GSH levels”. The “reduction of serum markers of liver damage” value in series [6] (10 mg kg^-1 16 h prior to APAP 400 mg kg^-1) is given as “over 70%”. Besides, in series [7] (2.5-10 mg kg^-1 3 h after APAP), the “JNK and ERK activation” value was “Reduced JNK and ERK activation”; the “markers of liver damage and hepatic GSH levels” value was “dose-dependent improvements in markers of liver damage and in hepatic GSH levels”. Also, the ALT reduction in series [7] (3 h after APAP, NAC 500 mg kg^-1, X209 5 mg kg^-1) came to 47%. Also, the “levels of p-ERK and pJNK” value in series [8] is “substantially reduce the levels of p-ERK and pJNK”. Also, in series [9], the “APAP-induced NOX4 upregulation and depletion in hepatocyte GSH levels” value is reported as “blocked”; the “CASP3 cleavage, cell death, ERK and JNK activation” value is “inhibited CASP3 cleavage and cell death, as well as ERK and JNK activation”. Moreover, in [10], the “hepatocyte necrosis, H&E” value is listed as “substantially less hepatocyte necrosis”. In addition, the “serum ALT levels” value in [10] (24 hours after APAP) was “substantial reduction in serum ALT levels”.

The values above are taken from US11319368B2, “Treatment of hepatotoxicity with IL-11 antibody” (Singapore Health Services PTE LTD., priority 2019, dated 2022).
